Measured values taken from patent US6793917 (SHIONOGI, dated 2004).

B1: human TARC (Thymus and Activation-Regulated Chemokine), mature secreted form, expressed in and purified from insect cells (ligand)
chain: ARGTNVGRECCLEYFKGAIPLRKLKTWYQTSEDCSRDAIVFVTVQGRAICSDPNNKRVKNAVKYLQSLERS
notes: also called hTARC; unlabeled TARC
B2: 125I-labeled human TARC (ligand)
chain: B1 chain
modifications: 125I label introduced with 125I-labeled Bolton-Hunter reagent (site not stated)
notes: specific activity 81.6 uCi/ug

Columns and labels:
[1] = molecular target: T1, receptor for TARC on Jurkat cell and certain other T-cells; test: displacement of 2 nM 125I-labeled TARC from Jurkat cells by unlabeled TARC, Scatchard analysis
T1 construct: also called TARC receptor; receptors for TARC

[2] = molecular target: T2, Duffy antigen/receptor for chemokine (DARC) on erythrocytes (UniProt Q16570 1-336); test: displacement of 0.66 nM 125I-labeled TARC from 10^8 erythrocytes by unlabeled TARC, Scatchard analysis
T2 construct: whole, on cells
T2 sequence (looked up): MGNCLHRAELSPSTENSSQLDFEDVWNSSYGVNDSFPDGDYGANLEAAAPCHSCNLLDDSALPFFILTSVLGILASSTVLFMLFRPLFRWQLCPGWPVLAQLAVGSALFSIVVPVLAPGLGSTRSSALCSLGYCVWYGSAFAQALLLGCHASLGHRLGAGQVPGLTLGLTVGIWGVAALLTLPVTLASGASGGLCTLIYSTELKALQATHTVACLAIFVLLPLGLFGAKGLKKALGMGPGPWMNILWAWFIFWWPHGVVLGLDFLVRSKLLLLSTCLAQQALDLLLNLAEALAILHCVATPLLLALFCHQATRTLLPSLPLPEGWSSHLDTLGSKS
Excerpt: It has been known that erythrocyte expresses a Duffy antigen/receptor for chemokine (DARC) to which various chemokines can be bound.

[3] = molecular target: T3, CCR4 expressed on 293/EBNA-1 cells (human, UniProt P51679 1-360); test: displacement of 1 nM TARC-SEAP from 4x10^5 293/EBNA-1 cells expressing CCR4 by unlabeled TARC
T3 construct: whole, on cells; also called CCR4 receptor
T3 sequence (looked up): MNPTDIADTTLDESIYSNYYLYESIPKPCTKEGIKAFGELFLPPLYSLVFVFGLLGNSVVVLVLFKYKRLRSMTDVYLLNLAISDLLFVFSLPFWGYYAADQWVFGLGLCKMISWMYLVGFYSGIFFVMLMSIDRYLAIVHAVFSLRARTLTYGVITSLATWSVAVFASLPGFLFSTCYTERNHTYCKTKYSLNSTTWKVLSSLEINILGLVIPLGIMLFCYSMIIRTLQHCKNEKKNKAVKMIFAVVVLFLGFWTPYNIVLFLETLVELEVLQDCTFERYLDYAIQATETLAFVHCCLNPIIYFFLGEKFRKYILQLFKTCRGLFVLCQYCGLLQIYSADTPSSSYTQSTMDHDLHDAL
Procedure: The binding experiment was conducted in 200 μl RPMI-1640 containing 20 mM HEPES (pH 7.4), 1% BSA, and 0.02% sodium azide. […] Cells were washed and dissolved in 50 μl 10 mM Tris-HCl (pH 8.0) containing 1% Triton X-100, and treated at 65° C. for 10 minutes to inactivate the phosphatase originated from the cells. After centrifugation, the AP activity in 25 μl of the supernatant was measured. The nonspecific binding was measured using 1 nM SEAP.

[4] = molecular target: T1, receptor for TARC on Jurkat cell and …; test: saturation binding of 125I-labeled TARC to Jurkat cells, Scatchard analysis
Excerpt: To determine the binding constant and the number of receptor, conditions under which the binding reaches equilibrium were examined.

| Kd [1] | Kd [2] | IC50 [3] | Kd [4] | Binder |
| --- | --- | --- | --- | --- |
| 2.1 nM | 17 nM | ~3 nM |  | B1 |
|  |  |  | 2.1 nM | B2 |
